Earlier results on two substances are cited in publication PMC12892997.

Data set [1] addresses SARS-CoV-2 spike protein RBD (Severe acute respiratory syndrome coronavirus 2) (UniProt P0DTC2).
Data set [2] addresses SARS-CoV-2 spike protein (Severe acute respiratory syndrome coronavirus 2) (UniProt P0DTC2).

Chain of GRP78 (P11021 19-654): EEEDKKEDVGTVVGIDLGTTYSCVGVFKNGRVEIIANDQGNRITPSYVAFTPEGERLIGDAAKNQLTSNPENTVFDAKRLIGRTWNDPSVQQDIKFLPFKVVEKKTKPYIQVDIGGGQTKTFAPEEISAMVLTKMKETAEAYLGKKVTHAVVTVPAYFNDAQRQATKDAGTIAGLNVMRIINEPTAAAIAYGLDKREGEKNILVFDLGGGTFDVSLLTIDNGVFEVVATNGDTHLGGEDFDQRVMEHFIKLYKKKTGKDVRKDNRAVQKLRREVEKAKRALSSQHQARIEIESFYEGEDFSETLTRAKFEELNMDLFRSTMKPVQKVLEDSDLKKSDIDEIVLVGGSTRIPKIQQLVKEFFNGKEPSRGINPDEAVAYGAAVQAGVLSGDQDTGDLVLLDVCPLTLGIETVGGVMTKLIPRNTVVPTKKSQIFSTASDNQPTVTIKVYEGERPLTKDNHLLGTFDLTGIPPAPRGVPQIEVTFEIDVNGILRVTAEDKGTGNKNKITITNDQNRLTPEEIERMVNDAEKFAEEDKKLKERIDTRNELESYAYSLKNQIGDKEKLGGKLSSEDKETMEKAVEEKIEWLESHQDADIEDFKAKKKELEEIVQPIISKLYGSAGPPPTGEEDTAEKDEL

The term Kd denotes the free concentration of one partner at which half of the binding sites on the other are occupied at equilibrium, for simple one-to-one binding. In the case of “CD4 N-terminal domain (from UniProt P01730)”, the Kd in data set [1] is 0.0245 µM.

Consider GRP78 (from UniProt P11021), for which the Kd in data set [2] is 0.0552 µM.
